Assay results from patent EP4582453A1 (Cichlid Inc., dated 2025).

T1: human CTLA-4 protein overexpressed in the HEK293 cell line (human, UniProt P16410 36-223)
T1 construct: whole, on cells; also called CTLA-4/HEK293 cell line; CTLA-4 expressing cell line
T1 sequence (looked up): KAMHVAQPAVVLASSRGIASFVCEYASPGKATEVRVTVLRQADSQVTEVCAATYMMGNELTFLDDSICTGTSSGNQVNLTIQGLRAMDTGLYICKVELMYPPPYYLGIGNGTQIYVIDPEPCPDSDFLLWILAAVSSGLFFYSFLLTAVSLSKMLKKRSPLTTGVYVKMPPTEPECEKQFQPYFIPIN


Target: T1, human CTLA-4 protein overexpressed in …
Assay: cell ELISA of HA-tagged scFv extract on CTLA-4-expressing HEK293 cells, anti-HA HRP

Row | Binder | binding result
1 | 4B6 scFv (scFv, V domains shown, HA-tagged scFv) VH: EVQLLESGGGLVQPGGSLRLSCAASGFTFSGYSMSWVRQAPGKGLEWVSSISPSGGNTYYADSVKGRFTISRDNSKNTLYLQMNSLRAEDTAVYYCAKTSELFDYWGQGTLVTVSS VL: QSVLTQPPSASGTPGQRVTISCTGSSSNIGSNDVNWYQQLPGTAPKLLIYNDSHRPSGVPDRFSGSKSGTSASLAISGLRSEDEADYYCGTWDYSLSAYVFGGGTKLTV | binds
2 | 3E4 scFv (scFv, V domains shown, HA-tagged scFv from a synthetic human scFv phage library, tested as an E. coli extract; VH and VL form one chain in the scFv) VH: EVQLLESGGGLVQPGGSLRLSCAASGFTFSNYAMSWVRQAPGKGLEWVSVIYYDGSNKYYADSVKGRFTISRDNSKNTLYLQMNSLRAEDTAVYYCARNTYRFDYWGQGTLVTVSS VL: QSVLTQPPSASGTPGQRVTISCSGSSSNIGNNAVTWYQQLPGTAPKLLIYSDSNRPSGVPDRFSGSKSGTSASLAISGLRSEDEADYYCGSWDSSLSGYVFGGGTKLTVL | binds
